Here are results for 2 molecules from PMC5983932 (Oncology Reports, 2018).

The labels stand for the following.
B2: recombinant human His-tag-PRMT2 protein (protein arginine N-methyltransferase 2) (enzyme, UniProt P55345-1 1-433, looked up)
chain: MATSGDCPRSESQGEEPAECSEAGLLQEGVQPEEFVAIADYAATDETQLSFLRGEKILILRQTTADWWWGERAGCCGYIPANHVGKHVDEYDPEDTWQDEEYFGSYGTLKLHLEMLADQPRTTKYHSVILQNKESLTDKVILDVGCGTGIISLFCAHYARPRAVYAVEASEMAQHTGQLVLQNGFADIITVYQQKVEDVVLPEKVDVLVSEWMGTCLLFEFMIESILYARDAWLKEDGVIWPTMAALHLVPCSADKDYRSKVLFWDNAYEFNLSALKSLAVKEFFSKPKYNHILKPEDCLSEPCTILQLDMRTVQISDLETLRGELRFDIRKAGTLHGFTAWFSVHFQSLQEGQPPQVLSTGPFHPTTHWKQTLFMMDDPVPVHTGDVVTGSVVLQRNPVWRRHMSVALSWAVTSRQDPTSQKVGEKVFPIWR

The target of assay [1] is B2. As to the kind of experiment: pull-down.
Assay [2] addresses T1, GST-ER-α66 fusion protein (UniProt P03372 1-595).
T1 sequence (looked up): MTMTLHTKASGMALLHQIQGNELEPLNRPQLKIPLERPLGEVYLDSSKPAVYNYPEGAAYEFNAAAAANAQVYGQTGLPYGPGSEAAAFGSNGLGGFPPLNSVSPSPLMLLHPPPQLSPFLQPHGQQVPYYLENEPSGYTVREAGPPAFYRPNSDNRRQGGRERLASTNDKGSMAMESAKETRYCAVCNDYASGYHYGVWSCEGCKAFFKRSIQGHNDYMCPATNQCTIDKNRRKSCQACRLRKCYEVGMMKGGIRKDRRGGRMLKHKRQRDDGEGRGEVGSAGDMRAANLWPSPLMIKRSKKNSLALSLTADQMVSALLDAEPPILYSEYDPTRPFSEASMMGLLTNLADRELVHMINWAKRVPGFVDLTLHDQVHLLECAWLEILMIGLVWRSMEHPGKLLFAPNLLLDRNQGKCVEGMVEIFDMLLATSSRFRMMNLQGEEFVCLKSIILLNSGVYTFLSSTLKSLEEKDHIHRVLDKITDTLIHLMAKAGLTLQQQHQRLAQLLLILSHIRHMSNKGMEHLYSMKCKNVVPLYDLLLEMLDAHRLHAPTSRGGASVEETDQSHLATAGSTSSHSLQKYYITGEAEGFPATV
The experiment in a line: pull-down.

B1: GST-ER-α36 fusion protein (receptor, UniProt P03372-4 1-310, looked up)
chain: MAMESAKETRYCAVCNDYASGYHYGVWSCEGCKAFFKRSIQGHNDYMCPATNQCTIDKNRRKSCQACRLRKCYEVGMMKGGIRKDRRGGRMLKHKRQRDDGEGRGEVGSAGDMRAANLWPSPLMIKRSKKNSLALSLTADQMVSALLDAEPPILYSEYDPTRPFSEASMMGLLTNLADRELVHMINWAKRVPGFVDLTLHDQVHLLECAWLEILMIGLVWRSMEHPGKLLFAPNLLLDRNQGKCVEGMVEIFDMLLATSSRFRMMNLQGEEFVCLKSIILLNSGISHVEAKKRILNLHPKIFGNKWFPRV
As for B1, in assay [1], the binding result is “binds”.

B2: in assay [2], the binding result is “binds”.
